Results as given in US20090118185A1 (UNIVERSITY OF ROCHESTER, published 2009).
Several values for one entry are separate records, joined by “and”; a condition that tells them apart may be missing. Identical values can stand only once.

Columns and labels:
[1] = biological target: T1, 562(P4-P3′)336 factor VIIIa mutant
T1 chain 1: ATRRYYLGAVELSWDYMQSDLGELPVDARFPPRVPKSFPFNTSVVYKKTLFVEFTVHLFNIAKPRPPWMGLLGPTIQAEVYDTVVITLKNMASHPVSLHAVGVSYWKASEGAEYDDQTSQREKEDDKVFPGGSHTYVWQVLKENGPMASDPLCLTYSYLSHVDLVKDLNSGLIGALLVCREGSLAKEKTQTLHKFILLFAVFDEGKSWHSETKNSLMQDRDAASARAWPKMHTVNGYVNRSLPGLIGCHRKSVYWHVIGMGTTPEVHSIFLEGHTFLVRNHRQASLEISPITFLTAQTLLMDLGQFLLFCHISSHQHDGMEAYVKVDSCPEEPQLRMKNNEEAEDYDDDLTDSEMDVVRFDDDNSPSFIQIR
T1 chain 2: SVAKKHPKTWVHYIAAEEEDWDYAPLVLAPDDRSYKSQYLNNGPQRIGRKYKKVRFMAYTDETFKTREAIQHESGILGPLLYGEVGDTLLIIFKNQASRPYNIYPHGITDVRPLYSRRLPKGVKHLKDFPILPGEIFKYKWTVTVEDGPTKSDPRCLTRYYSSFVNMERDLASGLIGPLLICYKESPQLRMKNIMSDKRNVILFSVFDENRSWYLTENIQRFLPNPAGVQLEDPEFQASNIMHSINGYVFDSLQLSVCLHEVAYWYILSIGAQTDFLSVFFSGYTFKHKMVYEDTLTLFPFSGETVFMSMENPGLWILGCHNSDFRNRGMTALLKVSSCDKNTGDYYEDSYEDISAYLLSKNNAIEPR
T1 chain 3: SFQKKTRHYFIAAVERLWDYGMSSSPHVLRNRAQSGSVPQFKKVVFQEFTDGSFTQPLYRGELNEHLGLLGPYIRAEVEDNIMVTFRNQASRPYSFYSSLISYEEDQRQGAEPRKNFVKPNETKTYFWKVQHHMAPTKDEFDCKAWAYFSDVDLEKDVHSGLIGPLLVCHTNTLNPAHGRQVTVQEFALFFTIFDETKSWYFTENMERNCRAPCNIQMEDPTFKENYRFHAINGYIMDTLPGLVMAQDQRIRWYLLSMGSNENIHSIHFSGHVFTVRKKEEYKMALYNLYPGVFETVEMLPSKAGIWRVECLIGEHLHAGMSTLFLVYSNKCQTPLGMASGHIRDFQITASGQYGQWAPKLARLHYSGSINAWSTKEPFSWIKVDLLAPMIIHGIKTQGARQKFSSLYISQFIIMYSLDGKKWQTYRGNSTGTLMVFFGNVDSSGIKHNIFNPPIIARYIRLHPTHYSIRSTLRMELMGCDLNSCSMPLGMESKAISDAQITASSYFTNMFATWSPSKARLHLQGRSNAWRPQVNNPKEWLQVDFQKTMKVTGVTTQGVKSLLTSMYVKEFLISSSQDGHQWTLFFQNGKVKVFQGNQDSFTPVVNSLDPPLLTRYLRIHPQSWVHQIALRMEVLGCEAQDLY

[2] = biological target: T2, WT factor VIIIa (B-domainless recombinant human factor VIII activated by thrombin)
T2 chain 1: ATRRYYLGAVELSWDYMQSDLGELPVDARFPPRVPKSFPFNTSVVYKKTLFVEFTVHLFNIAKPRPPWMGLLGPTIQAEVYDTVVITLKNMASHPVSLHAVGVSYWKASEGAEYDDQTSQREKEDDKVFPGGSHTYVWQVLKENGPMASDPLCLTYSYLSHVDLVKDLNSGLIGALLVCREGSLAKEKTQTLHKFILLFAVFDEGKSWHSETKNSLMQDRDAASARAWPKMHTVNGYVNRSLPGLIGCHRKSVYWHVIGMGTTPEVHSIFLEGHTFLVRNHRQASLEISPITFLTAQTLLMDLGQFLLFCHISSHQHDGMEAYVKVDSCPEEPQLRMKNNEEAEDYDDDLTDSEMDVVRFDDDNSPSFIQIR
T2 chain 2: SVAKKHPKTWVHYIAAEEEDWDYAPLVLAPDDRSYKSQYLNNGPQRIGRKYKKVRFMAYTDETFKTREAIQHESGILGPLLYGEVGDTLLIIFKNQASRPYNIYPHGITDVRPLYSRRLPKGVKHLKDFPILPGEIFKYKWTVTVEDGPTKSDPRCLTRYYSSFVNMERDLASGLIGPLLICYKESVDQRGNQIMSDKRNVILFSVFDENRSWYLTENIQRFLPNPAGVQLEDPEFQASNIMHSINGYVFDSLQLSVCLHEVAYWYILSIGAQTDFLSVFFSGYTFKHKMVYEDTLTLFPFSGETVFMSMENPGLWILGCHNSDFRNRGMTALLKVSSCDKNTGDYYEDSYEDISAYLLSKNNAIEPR
T2 chain 3: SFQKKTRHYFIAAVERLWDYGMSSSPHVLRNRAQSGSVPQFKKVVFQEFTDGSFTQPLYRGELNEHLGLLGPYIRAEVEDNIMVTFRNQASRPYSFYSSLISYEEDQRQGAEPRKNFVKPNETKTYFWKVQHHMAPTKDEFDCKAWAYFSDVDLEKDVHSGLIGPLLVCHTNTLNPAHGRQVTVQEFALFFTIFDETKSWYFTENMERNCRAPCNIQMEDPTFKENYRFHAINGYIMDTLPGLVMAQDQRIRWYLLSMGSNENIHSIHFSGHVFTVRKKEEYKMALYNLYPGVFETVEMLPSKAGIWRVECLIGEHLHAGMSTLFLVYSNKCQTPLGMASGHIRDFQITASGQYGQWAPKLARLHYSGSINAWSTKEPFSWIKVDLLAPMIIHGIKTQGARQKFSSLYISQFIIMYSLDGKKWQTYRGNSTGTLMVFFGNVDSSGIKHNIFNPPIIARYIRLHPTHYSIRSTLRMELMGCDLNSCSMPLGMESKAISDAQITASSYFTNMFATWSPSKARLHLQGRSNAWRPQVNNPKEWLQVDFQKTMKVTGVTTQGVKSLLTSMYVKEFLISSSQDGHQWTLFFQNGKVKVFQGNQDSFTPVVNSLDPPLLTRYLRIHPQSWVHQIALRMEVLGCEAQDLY

[3] = biological target: T3, 562(P4-P2)336 factor VIIIa mutant
T3 chain 1: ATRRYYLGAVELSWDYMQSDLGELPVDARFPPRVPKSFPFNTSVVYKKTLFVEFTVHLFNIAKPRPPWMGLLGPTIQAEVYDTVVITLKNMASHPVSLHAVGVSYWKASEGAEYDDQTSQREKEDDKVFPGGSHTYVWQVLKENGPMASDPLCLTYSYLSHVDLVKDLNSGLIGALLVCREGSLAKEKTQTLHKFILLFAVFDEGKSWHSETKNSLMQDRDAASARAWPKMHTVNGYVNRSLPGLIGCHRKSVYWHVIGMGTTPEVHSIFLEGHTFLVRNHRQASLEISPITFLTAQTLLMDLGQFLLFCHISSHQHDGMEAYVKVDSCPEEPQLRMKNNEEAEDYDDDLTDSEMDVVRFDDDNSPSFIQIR
T3 chain 2: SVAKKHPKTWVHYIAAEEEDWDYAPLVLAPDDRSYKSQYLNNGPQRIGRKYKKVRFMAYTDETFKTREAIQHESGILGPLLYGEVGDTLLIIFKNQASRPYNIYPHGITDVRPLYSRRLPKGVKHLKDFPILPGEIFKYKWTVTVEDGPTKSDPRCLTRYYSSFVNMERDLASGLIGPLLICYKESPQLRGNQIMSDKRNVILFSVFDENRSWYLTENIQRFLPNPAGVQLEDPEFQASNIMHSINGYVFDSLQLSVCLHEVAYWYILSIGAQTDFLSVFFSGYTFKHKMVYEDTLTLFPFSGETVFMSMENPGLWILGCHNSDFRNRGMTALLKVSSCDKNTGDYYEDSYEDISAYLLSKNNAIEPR
T3 chain 3: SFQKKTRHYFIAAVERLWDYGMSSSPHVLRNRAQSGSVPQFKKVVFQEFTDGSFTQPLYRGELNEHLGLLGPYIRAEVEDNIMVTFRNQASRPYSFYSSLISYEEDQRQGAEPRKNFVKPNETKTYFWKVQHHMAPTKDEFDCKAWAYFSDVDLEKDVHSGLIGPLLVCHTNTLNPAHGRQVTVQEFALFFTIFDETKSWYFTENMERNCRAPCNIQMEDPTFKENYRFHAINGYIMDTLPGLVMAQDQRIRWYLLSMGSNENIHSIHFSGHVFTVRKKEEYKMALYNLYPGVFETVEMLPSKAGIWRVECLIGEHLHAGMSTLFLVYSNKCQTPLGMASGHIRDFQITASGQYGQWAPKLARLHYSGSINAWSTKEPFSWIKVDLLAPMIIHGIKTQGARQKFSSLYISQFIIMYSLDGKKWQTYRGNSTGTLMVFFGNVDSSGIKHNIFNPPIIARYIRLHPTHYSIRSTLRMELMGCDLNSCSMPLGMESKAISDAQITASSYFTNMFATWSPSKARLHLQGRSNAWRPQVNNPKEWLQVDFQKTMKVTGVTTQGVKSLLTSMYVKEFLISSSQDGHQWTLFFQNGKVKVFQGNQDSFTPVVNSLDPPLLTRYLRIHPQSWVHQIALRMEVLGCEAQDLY

[4] = biological target: T4, 562(P4-P2)336 factor VIII mutant (procofactor)
T4 chain 1: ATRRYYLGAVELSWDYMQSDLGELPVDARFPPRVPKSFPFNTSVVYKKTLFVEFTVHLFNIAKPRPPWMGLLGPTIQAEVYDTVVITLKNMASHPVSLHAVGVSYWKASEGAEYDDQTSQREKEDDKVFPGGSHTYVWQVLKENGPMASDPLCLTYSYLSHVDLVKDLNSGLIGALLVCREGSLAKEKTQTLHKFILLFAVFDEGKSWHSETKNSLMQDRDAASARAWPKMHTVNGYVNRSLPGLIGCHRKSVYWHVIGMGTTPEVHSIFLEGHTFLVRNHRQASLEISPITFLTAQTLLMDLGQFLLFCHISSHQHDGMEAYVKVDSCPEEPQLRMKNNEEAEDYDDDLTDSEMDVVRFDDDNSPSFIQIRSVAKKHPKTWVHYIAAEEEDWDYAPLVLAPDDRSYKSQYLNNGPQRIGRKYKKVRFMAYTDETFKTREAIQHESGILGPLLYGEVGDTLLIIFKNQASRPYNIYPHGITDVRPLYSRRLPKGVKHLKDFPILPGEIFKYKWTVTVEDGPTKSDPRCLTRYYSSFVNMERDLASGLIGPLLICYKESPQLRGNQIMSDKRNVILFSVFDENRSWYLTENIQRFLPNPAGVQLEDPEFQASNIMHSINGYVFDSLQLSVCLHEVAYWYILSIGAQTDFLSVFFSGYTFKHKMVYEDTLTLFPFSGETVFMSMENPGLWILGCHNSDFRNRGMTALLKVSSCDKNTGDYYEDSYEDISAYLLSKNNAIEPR
T4 chain 2: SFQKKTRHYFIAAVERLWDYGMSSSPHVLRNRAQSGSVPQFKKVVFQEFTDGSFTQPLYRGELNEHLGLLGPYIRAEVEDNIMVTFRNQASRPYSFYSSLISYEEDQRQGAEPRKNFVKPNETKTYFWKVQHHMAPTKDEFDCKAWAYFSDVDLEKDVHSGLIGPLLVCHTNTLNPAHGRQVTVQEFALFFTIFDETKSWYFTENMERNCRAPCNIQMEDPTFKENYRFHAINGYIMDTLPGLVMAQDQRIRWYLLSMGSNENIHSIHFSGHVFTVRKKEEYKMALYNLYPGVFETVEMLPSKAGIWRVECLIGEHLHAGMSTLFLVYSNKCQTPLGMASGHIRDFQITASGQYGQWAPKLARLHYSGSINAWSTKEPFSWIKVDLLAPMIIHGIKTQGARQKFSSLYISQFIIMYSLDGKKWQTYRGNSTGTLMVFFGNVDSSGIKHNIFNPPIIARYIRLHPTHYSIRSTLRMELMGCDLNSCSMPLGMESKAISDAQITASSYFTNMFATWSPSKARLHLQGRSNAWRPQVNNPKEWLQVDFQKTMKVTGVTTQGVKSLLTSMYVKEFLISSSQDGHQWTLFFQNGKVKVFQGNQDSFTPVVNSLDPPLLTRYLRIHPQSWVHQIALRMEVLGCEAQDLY

B1: human activated protein C (protein)
chain 1: ANSFLEELRHSSLERECIEEICDFEEAKEIFQNVDDTLAFWSKHVDGDQCLVLPLEHPCASLCCGHGTCIDGIGSFSCDCRSGWEGRFCQREVSFLNCSLDNGGCTHYCLEEVGWRRCSCAPGYKLGDDLLQCHPAVKFPCGRPWKRMEKKRSHL
chain 2: LIDGKMTRRGDSPWQVVLLDSKKKLACGAVLIHPSWVLTAAHCMDESKKLLVRLGEYDLRRWEKWELDLDIKEVFVHPNYSKSTTDNDIALLHLAQPATLSQTIVPICLPDSGLAERELNQAGQETLVTGWGYHSSREKEAKRNRTFVLNFIKIPVVPHNECSEVMSNMVSENMLCAGILGDRQDACEGDSGGPMVASFHGTWFLVGLVSWGEGCGLLHNYGVYTKVSRYLDWIHGHIRDKEAPQKSWAP
With B1 the A1 Cleavage (nM A1/min/nM APC) (nM A1/min/nM APC) [1] was 7.3, the A2 Cleavage (nM A2/min/nM APC) (nM A2/min/nM APC) [1] was 1.9 and the “fold increase of A2 subunit cleavage rate” value [1] was “the rate of A2 subunit cleavage for 562(P4-P3′)336 mutant was increased 4 fold”. The A1 Cleavage (nM A1/min/nM APC) (nM A1/min/nM APC) [2] was 8.5 and 9.5, the A2 Cleavage (nM A2/min/nM APC) (nM A2/min/nM APC) [2] was 0.5 and 0.2 and the A1 Cleavage (nM A1/min/nM APC) (nM A1/min/nM APC) [3] was 7.4. For the same protein, the A2 Cleavage (nM A2/min/nM APC) (nM A2/min/nM APC) [3] was 0.7 and the A2 Cleavage (nM A2/min/nM APC) (nM A2/min/nM APC) [4] was 0.6.
